Experimental data reported in PMC8143792, “Sec17/Sec18 can support membrane fusion without help from completion of SNARE zippering” (eLife, 2021).

B1: his6-R (Nyv1), full-length R-SNARE with a 6his-tag on its N-terminus (natural protein, Saccharomyces cerevisiae, UniProt Q12255 1-253, looked up)
chain: MKRFNVSYVEVIKNGETISSCFQPFQKNENYGTITSANEQITPVIFHNLIMDMVLPKVVPIKGNKVTKMSMNLIDGFDCFYSTDDHDPKTVYVCFTLVDMPKILPIRILSGLQEYESNATNELLSSHVGQILDSFHEELVEYRNQTLNSSGNGQSSNGNGQNTISDIGDATEDQIKDVIQIMNDNIDKFLERQERVSLLVDKTSQLNSSSNKFRRKAVNIKEIMWWQKVKNITLLTFTIILFVSAAFMFFYLW
notes: Nyv1, the vacuolar R-SNARE of Saccharomyces cerevisiae, full length with its membrane anchor; construct as in the cited work (PMID:22174414); also called His-R (Nyv1); source: E. coli, purified; not shown: His6, N-terminal, kept

Assays:
Qa (Vam3), full-length = molecular target: T1, Qa (Vam3), full-length (Saccharomyces cerevisiae, UniProt Q12241 1-283); assay: pull-down; his6-R held on nickel-NTA agarose; 2.5 µM of each SNARE (R and three Q-SNAREs mixed), Buffer 151 (20 mM HEPES-NaOH, pH 7.4, 150 mM NaCl, 10% glycerol, 1% ß-OG, 20 mM imidazole), 4°C, 2 hr then 1 hr on beads; immunoblot; conditions: both partners purified
T1 construct: Vam3, the vacuolar Qa-SNARE of Saccharomyces cerevisiae, full length with its transmembrane anchor; whether GST was removed is told only in the cited work; also called GST-Qa (Vam3); source: E. coli, purified
T1 sequence (looked up): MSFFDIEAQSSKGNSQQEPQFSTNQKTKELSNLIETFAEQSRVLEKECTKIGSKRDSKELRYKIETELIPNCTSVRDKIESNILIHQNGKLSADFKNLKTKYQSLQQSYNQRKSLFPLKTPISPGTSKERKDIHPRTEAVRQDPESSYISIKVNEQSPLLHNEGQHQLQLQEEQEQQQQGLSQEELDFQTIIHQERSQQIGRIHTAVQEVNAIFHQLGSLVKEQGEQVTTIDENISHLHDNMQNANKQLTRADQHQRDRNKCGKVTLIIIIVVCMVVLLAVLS

[1] = molecular target: B1; assay: as above; conditions: both partners purified

B1
binding result (Qa (Vam3), full-length): binds

B2: Qb (Vti1), full-length (natural protein, Saccharomyces cerevisiae, UniProt Q04338 1-217, looked up)
chain: MSSLLISYESDFKTTLEQAKASLAEAPSQPLSQRNTTLKHVEQQQDELFDLLDQMDVEVNNSIGDASERATYKAKLREWKKTIQSDIKRPLQSLVDSGDRDRLFGDLNASNIDDDQRQQLLSNHAILQKSGDRLKDASRIANETEGIGSQIMMDLRSQRETLENARQTLFQADSYVDKSIKTLKTMTRRLVANKFISYAIIAVLILLILLVLFSKFK
notes: Vti1, the vacuolar Qb-SNARE of Saccharomyces cerevisiae, full length with its transmembrane anchor; whether GST was removed is told only in the cited work; also called GST-Qb (Vti1); source: E. coli, purified
binding result [1]: binds

B3: sQa3Δ, soluble Qa (Vam3) with amino acyl residues 1–235 (domain or fragment, Saccharomyces cerevisiae, UniProt Q12241 1-235, looked up)
chain: MSFFDIEAQSSKGNSQQEPQFSTNQKTKELSNLIETFAEQSRVLEKECTKIGSKRDSKELRYKIETELIPNCTSVRDKIESNILIHQNGKLSADFKNLKTKYQSLQQSYNQRKSLFPLKTPISPGTSKERKDIHPRTEAVRQDPESSYISIKVNEQSPLLHNEGQHQLQLQEEQEQQQQGLSQEELDFQTIIHQERSQQIGRIHTAVQEVNAIFHQLGSLVKEQGEQVTTIDENI
notes: Vam3 of Saccharomyces cerevisiae, residues 1-235; lacks the regions C-terminal to the +3 layer of the SNARE domain; also called GST-sQa3Δ; GST-Qa (Vam3)3Δ; source: E. coli Rosetta2 (DE3)-pLysS, purified (glutathione agarose), GST tag removed by TEV protease
binding result [1]: binds

B4: sQb3Δ, soluble Qb (Vti1) with amino acyl residues 1–160 (domain or fragment, Saccharomyces cerevisiae, UniProt Q04338 1-160, looked up)
chain: MSSLLISYESDFKTTLEQAKASLAEAPSQPLSQRNTTLKHVEQQQDELFDLLDQMDVEVNNSIGDASERATYKAKLREWKKTIQSDIKRPLQSLVDSGDRDRLFGDLNASNIDDDQRQQLLSNHAILQKSGDRLKDASRIANETEGIGSQIMMDLRSQRE
notes: Vti1 of Saccharomyces cerevisiae, residues 1-160; lacks the regions C-terminal to the +3 layer of the SNARE domain; also called GST-sQb3Δ; GST-Qb (Vti1)3Δ; source: E. coli Rosetta2 (DE3)-pLysS, purified (glutathione agarose), GST tag removed by TEV protease
binding result [1]: binds
